This note sets out measurements from patent US6492139 (Genentech, dated 2002).

For experiment [1], the target named is T1, dSmo (Drosophila Smoothened, epitope tagged) (Drosophila, UniProt P91682 32-1036).
T1 construct: also called dro.smo
T1 sequence: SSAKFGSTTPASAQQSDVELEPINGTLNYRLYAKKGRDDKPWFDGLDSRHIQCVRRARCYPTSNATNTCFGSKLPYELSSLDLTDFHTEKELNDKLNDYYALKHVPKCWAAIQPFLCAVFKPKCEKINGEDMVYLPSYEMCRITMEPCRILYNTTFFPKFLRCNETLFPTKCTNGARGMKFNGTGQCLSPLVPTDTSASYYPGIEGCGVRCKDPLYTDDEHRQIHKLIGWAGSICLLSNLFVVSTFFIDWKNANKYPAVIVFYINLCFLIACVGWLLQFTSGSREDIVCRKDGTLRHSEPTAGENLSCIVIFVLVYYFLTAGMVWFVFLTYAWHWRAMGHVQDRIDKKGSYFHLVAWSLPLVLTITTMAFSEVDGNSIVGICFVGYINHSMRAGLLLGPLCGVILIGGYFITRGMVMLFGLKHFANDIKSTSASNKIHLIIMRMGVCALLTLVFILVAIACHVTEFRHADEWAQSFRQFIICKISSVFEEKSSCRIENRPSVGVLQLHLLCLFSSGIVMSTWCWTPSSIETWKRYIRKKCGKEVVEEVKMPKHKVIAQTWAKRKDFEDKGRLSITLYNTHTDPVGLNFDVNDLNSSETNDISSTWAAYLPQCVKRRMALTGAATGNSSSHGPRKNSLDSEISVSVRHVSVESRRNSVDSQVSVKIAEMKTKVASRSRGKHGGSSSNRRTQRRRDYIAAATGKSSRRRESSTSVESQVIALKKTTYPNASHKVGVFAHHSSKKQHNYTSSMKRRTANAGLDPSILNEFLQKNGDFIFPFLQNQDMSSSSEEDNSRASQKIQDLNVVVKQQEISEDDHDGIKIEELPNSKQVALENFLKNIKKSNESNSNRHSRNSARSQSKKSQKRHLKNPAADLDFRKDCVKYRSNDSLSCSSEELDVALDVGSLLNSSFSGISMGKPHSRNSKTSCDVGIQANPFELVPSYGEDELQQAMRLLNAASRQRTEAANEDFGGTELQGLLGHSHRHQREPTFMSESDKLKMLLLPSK
Briefly: staining of transfected cells exposed to tagged ligand.

Experiment [2] addresses T2, Flag tagged rSmo (rat Smoothened with C-terminal Flag epitope tag) (rat, UniProt P97698 33-793).
T2 construct: Expressed transiently in COS-7 or 293 cells from pRK5
The description is as above.

T2 sequence (P97698 33-793): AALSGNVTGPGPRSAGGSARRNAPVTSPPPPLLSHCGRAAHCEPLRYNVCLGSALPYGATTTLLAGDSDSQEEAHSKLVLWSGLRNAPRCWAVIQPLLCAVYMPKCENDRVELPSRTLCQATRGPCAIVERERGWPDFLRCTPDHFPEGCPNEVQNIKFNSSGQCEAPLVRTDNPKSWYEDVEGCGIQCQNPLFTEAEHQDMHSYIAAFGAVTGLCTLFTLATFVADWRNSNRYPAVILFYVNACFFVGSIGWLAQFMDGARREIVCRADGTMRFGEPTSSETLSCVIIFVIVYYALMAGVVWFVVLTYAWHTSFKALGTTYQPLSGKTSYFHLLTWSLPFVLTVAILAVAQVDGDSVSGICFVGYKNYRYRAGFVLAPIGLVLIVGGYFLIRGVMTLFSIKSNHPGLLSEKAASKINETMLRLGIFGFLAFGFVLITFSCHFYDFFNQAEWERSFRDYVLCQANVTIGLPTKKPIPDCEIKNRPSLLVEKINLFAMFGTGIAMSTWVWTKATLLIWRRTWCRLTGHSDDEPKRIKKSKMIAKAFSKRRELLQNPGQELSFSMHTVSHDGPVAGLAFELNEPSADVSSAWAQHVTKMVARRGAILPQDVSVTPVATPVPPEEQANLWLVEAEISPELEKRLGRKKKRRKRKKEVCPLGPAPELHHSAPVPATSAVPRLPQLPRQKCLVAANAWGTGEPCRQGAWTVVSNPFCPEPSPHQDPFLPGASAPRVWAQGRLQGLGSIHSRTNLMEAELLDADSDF

B1: epitope tagged Desert HH (ligand, not shown: small tags and cut ends)
chain: not shown
As for B1, the binding result in experiment [1] and in experiment [2] was “no binding” in each case.
